# Laboratory results taken from US20260070987A1.
# Numbering of substitutions follows the chain as printed. Numbers in names are those of the source.
# B1: equine IgG1 M252A (antibody, part only; not given: variable domains, not shown: another chain or arm of the molecule)
# constant: ASTTAPKVFALAPGCGTTSDSTVALGCLVSGYFPEPVKVSWNSGSLTSGVHTFPSVLQSSGFYSLSSMVTVPASTWTSETYICNVVHAASNFKVDKRIEPIPDNHQKVCDMSKCPKCPAPELLGGPSVFIFPPNPKDTLAITRTPEVTCVVVDVSQENPDVKFNWYMDGVEVRTATTRPKEEQFNSTYRVVSVLRIQHQDWLSGKEFKCKVNNQALPQPIERTITKTKGRSQEPQVYVLAPHPDELSKSKVSVTCLVKDFYPPEINIEWQSNGQPELETKYSTTQAQQDSDGSYFLYSKLSVDRNRWQQGTTFTCGVMHEALHNHYTQKNVSKNPGK
# B2: equine IgG1 T286R (antibody, part only; not given: variable domains, not shown: another chain or arm of the molecule)
# constant: B1 constant with A140M, T174R
# B3: equine IgG1 T286Q (antibody, part only; not given: variable domains, not shown: another chain or arm of the molecule)
# constant: B1 constant with A140M, T174Q
# B4: equine IgG4 N434M (antibody, part only; not given: variable domains, not shown: another chain or arm of the molecule)
# constant: ASTTAPKVFPLASHSAATSGSTVALGCLVSSYFPEPVTVSWNSGALTSGVHTFPSVLQSSGLYSLSSMVTVPASSLKSQTYICNVAHPASSTKVDKKIVIKECNGGCPAECLQVGPSVFIFPPKPKDVLMISRTPTVTCVVVDVGHDFPDVQFNWYVDGVETHTATTEPKQEQFNSTYRVVSVLPIQHKDWLSGKEFKCKVNNKALPAPVERTISKPTGQPREPQVYVLAPHRDELSKNKVSVTCLVKDFYPTDIDIEWKSNGQPEPETKYSTTPAQLDSDGSYFLYSKLTVETNRWQQGTTFTCAVMHEALHMHYTEKSVSKSPGK
# B5: equine IgG4 N434P (antibody, part only; not given: variable domains, not shown: another chain or arm of the molecule)
# constant: B4 constant with M314P
# B6: equine IgG4 N434Q (antibody, part only; not given: variable domains, not shown: another chain or arm of the molecule)
# constant: B4 constant with M314Q
# B7: equine IgG4 N434Y (antibody, part only; not given: variable domains, not shown: another chain or arm of the molecule)
# constant: B4 constant with M314Y
# B8: equine IgG4 N434V (antibody, part only; not given: Variable domains, not shown: another chain or arm of the molecule)
# constant: B4 constant with M314V
# B9: equine IgG4 D312A (antibody, part only; not given: variable domains, not shown: another chain or arm of the molecule)
# constant: B4 constant with D190A, M314N
# B10: equine IgG4 D312C (antibody, part only; not given: variable domains, not shown: another chain or arm of the molecule)
# constant: B4 constant with D190C, M314N
# B11: equine IgG4 N434W (antibody, part only; not given: variable domains, not shown: another chain or arm of the molecule)
# constant: B4 constant with M314W
# B12: equine IgG4 N434R (antibody, part only; not given: variable domains, not shown: another chain or arm of the molecule)
# constant: B4 constant with M314R
# B13: equine IgG4 N434S (antibody, part only; not given: variable domains, not shown: another chain or arm of the molecule)
# constant: B4 constant with M314S
# B14: equine IgG4 N434T (antibody, part only; not given: variable domains, not shown: another chain or arm of the molecule)
# constant: B4 constant with M314T
# Biological target: equine FcRn (large alpha subunit p51) / equine beta-2-microglobulin complex, biotinylated (equine) (UniProt P30441)
# Chain of UniProt P30441 (P30441 21-118, one chain of several): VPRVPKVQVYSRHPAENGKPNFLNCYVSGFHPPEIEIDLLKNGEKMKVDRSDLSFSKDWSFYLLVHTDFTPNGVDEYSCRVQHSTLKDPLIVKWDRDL
# Test: SPR (Biacore), pH 6
row,Binder,Kd [µM]
1,B1,0.0503
2,B2,0.0205
3,B3,0.017
4,B4,0.0434
5,B5,0.0394
6,B6,0.0177
7,B7,0.0046
8,B8,0.0326
9,B9,0.0131
10,B10,0.0271
11,B11,0.0016
12,B12,0.0227
13,B13,0.0238
14,B14,0.0575
